Assay results taken from patent US20220363752A1 (VERSEAU THERAPEUTICS, published 2022).
Primed or numbered codes have the meaning given here. Biotin′ = not defined here

T1: LRRC25(96-115) biotin peptide (human, not fully specified; N-terminal acetyl; C-terminal GGK-Biotin; native Cys changed to Ser)
T1 construct: also called Biotin LRRC25 (96-115) peptide
T1 peptide: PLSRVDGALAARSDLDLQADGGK

T2: LRRC25(81-100) biotin peptide (human, not fully specified; N-terminal acetyl; C-terminal GGK-Biotin)
T2 peptide: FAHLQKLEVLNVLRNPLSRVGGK

T3: LRRC25(126-145) biotin peptide (human, not fully specified; N-terminal acetyl; C-terminal GGK-Biotin; native Cys changed to Ser)
T3 peptide: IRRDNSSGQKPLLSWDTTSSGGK

T4: LRRC25(36-55) biotin peptide (human, not fully specified; N-terminal NH2; C-terminal GGK-Biotin; native Cys changed to Ser)
T4 peptide: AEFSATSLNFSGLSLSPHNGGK

T5: LRRC25(66-85) biotin peptide (human, not fully specified; N-terminal acetyl; C-terminal GGK-Biotin)
T5 peptide: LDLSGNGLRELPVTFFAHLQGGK

T6: LRRC25(150-165) biotin peptide (human)
T6 peptide: Ac-SAFLEVSSAPGLASATGG-{Biotin′}

T7: LRRC25(21-40) biotin peptide (human, not fully specified; N-terminal NH2; C-terminal GGK-Biotin; native Cys changed to Ser)
T7 peptide: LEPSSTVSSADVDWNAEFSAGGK

T8: LRRC25(111-130) biotin peptide (human, not fully specified; N-terminal acetyl; C-terminal GGK-Biotin; native Cys changed to Ser)
T8 peptide: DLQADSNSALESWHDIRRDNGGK

T9: LRRC25(51-69) biotin peptide (human, not fully specified; N-terminal acetyl; C-terminal GGK-Biotin)
T9 peptide: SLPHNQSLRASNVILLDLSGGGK

T10: LRRC25(141-159) biotin peptide (human, not fully specified; N-terminal acetyl; C-terminal GGK-Biotin; native Cys changed to Ser)
T10 peptide: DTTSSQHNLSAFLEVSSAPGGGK


Tests used:
[1] = molecular target: T11, His-tagged human LRRC25 extracellular domain protein, human LRRC25-His (human, UniProt Q8N386 21-165); assay: ELISA, plate-immobilized antigen
T11 construct: The entry holds the extracellular domain, a GSG linker and the His tag; also called LRRC25(ECD)-HIS
Outline: (§1)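 Wells coated overnight at 4 °C with 1 ug/mL antigen in PBS pH 7.4. Antibodies titrated from 500 nM in 3-fold steps in 1% skimmed milk/PBS, 1 h at room temperature, then HRP anti-human IgG; TMB read at A450 nm and EC50 taken from binding curves.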

[2] = molecular target: T12, His-tagged cynomolgus monkey LRRC25 extracellular domain protein, cyno LRRC25-His (cynomolgus monkey); assay: ELISA, plate-immobilized antigen
T12 construct: The entry holds the extracellular domain, a GSG linker and the His tag
Outline: as §1

[3] = molecular target: T12, His-tagged cynomolgus monkey LRRC25 …; assay: ELISA, antibody titrated on plate-immobilized Cyno LRRC25(ECD)-His, A450nm against -log [IgG] (M), right panel
Method: (§2) To establish the relative binding strengths of anti-LRRC25 antibodies against human LRRC25, and their cross-reactivity with cynomolgus monkey LRRC25, antibody binding curve analyses were performed and EC50 values against plate-immobilized recombinant human and cyno LRRC25 proteins were determined.
(§3) A typical ELISA was performed by coating overnight in PBS, pH 7.4, at 4° C. in high binding microtiter wells with 1 ug/mL/100 ul per well of human LRRC25-His or cyno LRRC25-His. An anti-human LRRC25 antibody (2A3, LS Bio, LS-C174039-100) and anti-HIS-HRP (Miltenyi Biotec; 130-092-783) served as coating controls for the human and cyno LRRC25 proteins, respectively. […] Anti-LRRC25 antibodies were added (100 ul per well) at 500 nM and serially diluted 3-fold in assay buffer (1% skimmed milk in PBS, pH 7.4). The plate was incubated with gentle agitation for 1 h at room temperature. The plate was washed 3× and HRP-conjugated secondary antibody in assay buffer added [100 ul per well; goat anti-human IgG (Jackson Immunoresearch, cat #715-035-150)], and the plate was incubated as before. Antibody bound to plate-immobilized LRRC25(ECD)-HIS was determined at A450 nm using HRP substrate (3,3′,5,5′-tetramethylbenzidine (TMB); eBioscience; 00-4201-56); 100 μl/well).

[4] = molecular target: T13, biotinylated human LRRC25-His protein (human, UniProt Q8N386 21-165, biotinylated (sites not given)); assay: ELISA, 20 nM antibody, biotinylated antigen on streptavidin plate
T13 construct: also called Biotin LRRC25-His; biotinylated LRRC25 protein
Outline: (§4)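 Plate-bound streptavidin captured biotinylated 16- to 20-mer LRRC25 ECD overlapping peptides (2 ug/mL), with biotinylated human LRRC25-His as positive control. Chimeric anti-LRRC25 antibodies at 20 nM, 45 min at 37° C in duplicate; detection by HRP anti-human IgG and TMB at A450 nm.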

[5] = molecular target: T1, LRRC25(96-115) biotin peptide; assay: as above
Outline: as §4

[6] = molecular target: T2, LRRC25(81-100) biotin peptide; assay: as above
Outline: as §4

[7] = molecular target: T11, His-tagged human LRRC25 extracellular …; assay: ELISA, antibody titrated on plate-immobilized Human LRRC25(ECD)-His, A450nm against -log [IgG] (M), left panel
Method: as §2, §3

[8] = molecular target: T3, LRRC25(126-145) biotin peptide; assay: peptide ELISA
Outline: as §4

[9] = molecular target: T4, LRRC25(36-55) biotin peptide; assay: peptide ELISA
Outline: as §4

[10] = molecular target: T5, LRRC25(66-85) biotin peptide; assay: peptide ELISA
Outline: as §4

[11] = molecular target: T1, LRRC25(96-115) biotin peptide; assay: peptide ELISA
Outline: as §4

[12] = molecular target: T6, LRRC25(150-165) biotin peptide; assay: peptide ELISA
Outline: as §4

[13] = molecular target: T7, LRRC25(21-40) biotin peptide; assay: peptide ELISA
Outline: as §4

[14] = molecular target: T8, LRRC25(111-130) biotin peptide; assay: peptide ELISA
Outline: as §4

[15] = molecular target: T2, LRRC25(81-100) biotin peptide; assay: peptide ELISA
Outline: as §4

[16] = molecular target: T9, LRRC25(51-69) biotin peptide; assay: peptide ELISA
Outline: as §4

[17] = molecular target: T10, LRRC25(141-159) biotin peptide; assay: peptide ELISA
Outline: as §4

T12 sequence (chain, as listed by the source limits assumed): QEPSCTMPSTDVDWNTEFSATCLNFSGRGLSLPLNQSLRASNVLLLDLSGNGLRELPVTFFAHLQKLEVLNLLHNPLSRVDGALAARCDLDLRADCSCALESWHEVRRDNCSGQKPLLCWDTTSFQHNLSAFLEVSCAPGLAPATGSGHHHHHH
T11 sequence (Q8N386 other isoform, or with tags, fused parts or gaps): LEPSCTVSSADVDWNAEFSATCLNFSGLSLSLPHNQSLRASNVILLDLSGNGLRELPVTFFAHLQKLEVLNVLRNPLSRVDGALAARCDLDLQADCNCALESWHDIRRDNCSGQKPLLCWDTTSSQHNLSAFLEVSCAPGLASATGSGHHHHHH
T13 sequence (Q8N386 other isoform, or with tags, fused parts or gaps): as above

EC50 [1] [nM] | EC50 [2] [nM] | EC50 (read off the curve) [3] [nM] | absorbance (A450) [4] [A450] | absorbance (A450) [5] [A450] | absorbance (A450) [6] [A450] | fold lower assay signal than with the biotinylated LRRC25 protein [6] [fold] | EC50 (read off the curve) [7] [nM] | binding result [8] | binding result [9] | binding result [10] | binding result [11] | binding result [12] | binding result [13] | binding result [14] | binding result [15] | binding result [16] | binding result [17] | Binder | binding result [3]
1.2 | 0.68 | ~0.7 | 2.5 | 0.095 | 0.676 | ~4 | ~1 |  |  |  |  |  |  |  |  |  |  | anti-LRRC25 chimeric antibody 2D09 (antibody, human IgG4, V domains shown, also called mAb 2D09; MAb 2D09) VH: QVTLKESGPGTVQPSQTLSLTCSFSGFSLSTSGMGVSWIRQSSGKGLEWLAHIYWDDDKRYNPSLKSRLTISKDTSSNQVFLRITSVDTADTATYYCARRPRDFYGGGHWYFDVWGAGTTVTVSS VL: DVVMTQTPKSMSMSVGERVTLNCKASENVGTYVSWYQQKPEQSPKLLIYGASNRYTGVPDRFTGSGSATDFTLTISSMQAEDLADYHCGQSYNFPLTFGAGTKLELKR | 
51.1 |  |  | 0.305 | 0.088 |  |  |  | no binding (tested: 20 nM) | no binding (tested: 20 nM) | no binding (tested: 20 nM) | no binding (tested: 20 nM) | no binding (tested: 20 nM) | no binding (tested: 20 nM) | no binding (tested: 20 nM) | no binding (tested: 20 nM) | no binding (tested: 20 nM) | no binding (tested: 20 nM) | anti-LRRC25 chimeric antibody 3A08 (antibody, human IgG4, also called mAb 3A08) heavy: DVKLVESGGGLVKPGGSLKLSCAVSGFTLSSYAMSWVRQTPEKRLEWVASISRGGSTYYPDSVKGRFTISRDNGRNILNLQMSSLRSEDTAIYYCARGGGSTMITSLFAYWGQGTLVTVSAASTKGPSVFPLAPCSRSTSESTAALGCLVKDYFPEPVTVSWNSGALTSGVHTFPAVLQSSGLYSLSSVVTVPSSSLGTKTYTCNVDHKPSNTKVDKRVESKYGPPCPPCPAPEFLGGPSVFLFPPKPKDTLMISRTPEVTCVVVDVSQEDPEVQFNWYVDGVEVHNAKTKPREEQFNSTYRWSVLTVLHQDWLNGKEYKCKVSNKGLPSSIEKTISKAKGQPREPQVYTLPPSQEEMTKNQVSLTCLVKGFYPSDIAVEWESNGQPENNYKTTPPVLDSDGSFFLYSRLTVDKSRWQEGNVFSCSVMHEALHNHYTQKSLSLSLGK light: DIVMTQAAFSNPVTLGTSASISCRSSKSLLHSNGITYLYWYLQKPGQSPQLLIYQMSNLASGVPDRFSSSGSGTDFTLRISRVEAEDVGVYYCAQNLELPFTFGSGTKLEIKRTVAAPSVFIFPPSDEQLKSGTASVVCLLNNFYPREAKVQWKVDNALQSGNSQESVTEQDSKDSTYSLSSTLTLSKADYEKHKVYACEVTHQGLSSPVTKSFNRGEC | no binding (tested: about 5e-7 M (-log [IgG] about 6.3))
